Assay results reported in patent US20060121042A1 (AstraZeneca / MedImmune, published 2006).
Blank lines part the entries; values can stand above or below the binder they belong to.

Experiments:
hEphA2 = biological target: T1, hEphA2 (human, UniProt P29317); assay: ELISA
T1 construct: also called human EphA2

r murine EphA3 = biological target: T2, r murine EphA3 (mouse, UniProt P29319); assay: activity ELISA, Fab on coated antigen
T2 construct: recombinant Fc fusion (R&D Systems); also called rmuEphA3-Fc; mEphA3
T2 sequence (receptor-Fc fusion, looked up): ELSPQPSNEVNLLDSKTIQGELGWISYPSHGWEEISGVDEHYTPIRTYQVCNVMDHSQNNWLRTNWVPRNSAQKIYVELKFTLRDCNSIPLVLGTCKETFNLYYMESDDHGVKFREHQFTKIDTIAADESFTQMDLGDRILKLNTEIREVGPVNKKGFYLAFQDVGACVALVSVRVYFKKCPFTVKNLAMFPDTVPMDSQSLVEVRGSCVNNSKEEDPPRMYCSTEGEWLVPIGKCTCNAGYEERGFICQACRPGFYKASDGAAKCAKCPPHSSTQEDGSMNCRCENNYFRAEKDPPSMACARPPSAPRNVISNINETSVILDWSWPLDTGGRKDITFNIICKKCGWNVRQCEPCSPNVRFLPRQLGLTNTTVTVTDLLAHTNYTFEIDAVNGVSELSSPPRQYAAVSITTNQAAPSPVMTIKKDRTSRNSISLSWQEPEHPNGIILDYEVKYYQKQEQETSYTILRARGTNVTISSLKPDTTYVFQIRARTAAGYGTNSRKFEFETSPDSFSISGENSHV
Experimental: (§1) More precisely, Nunc Maxisorp plates were coated with the following rEphA proteins: rhuEphAl-Fc, rmuEphA2-Fc, rmuEphA3-Fc, rmuEphA4-Fc, rratEphA5-Fc, rmuEphA6-Fc, rmuEphA7-Fc, rEphA8; all at 0.5 μg/well (all R&D Systems) rhuEphA2-Fc; 0.5 μg/well, and rhuEphA4-His; 0.1 μg/well (both produced at MedImmune, Inc.). Plates were blocked with 3% BSA+0.1% Tween20 for 2 h. […] Incubation with a goat anti-human kappa horseradish peroxydase (HRP) conjugate then followed. HRP activity was detected with TMB substrate and the reaction quenched with 0.2 M H₂SO₄. Plates were read at 450 nm. Data was analyzed by normalizing Fab concentrations to the corresponding activity data (see FIGS. 10B-10H).

r murine EphA4 [1] = biological target: T3, r murine EphA4 (mouse, UniProt Q03137); assay: activity ELISA, Fab on coated antigen
T3 construct: recombinant Fc fusion (R&D Systems); also called rmuEphA4-Fc; mEphA4
T3 sequence (Q03137 20-547 limits assumed): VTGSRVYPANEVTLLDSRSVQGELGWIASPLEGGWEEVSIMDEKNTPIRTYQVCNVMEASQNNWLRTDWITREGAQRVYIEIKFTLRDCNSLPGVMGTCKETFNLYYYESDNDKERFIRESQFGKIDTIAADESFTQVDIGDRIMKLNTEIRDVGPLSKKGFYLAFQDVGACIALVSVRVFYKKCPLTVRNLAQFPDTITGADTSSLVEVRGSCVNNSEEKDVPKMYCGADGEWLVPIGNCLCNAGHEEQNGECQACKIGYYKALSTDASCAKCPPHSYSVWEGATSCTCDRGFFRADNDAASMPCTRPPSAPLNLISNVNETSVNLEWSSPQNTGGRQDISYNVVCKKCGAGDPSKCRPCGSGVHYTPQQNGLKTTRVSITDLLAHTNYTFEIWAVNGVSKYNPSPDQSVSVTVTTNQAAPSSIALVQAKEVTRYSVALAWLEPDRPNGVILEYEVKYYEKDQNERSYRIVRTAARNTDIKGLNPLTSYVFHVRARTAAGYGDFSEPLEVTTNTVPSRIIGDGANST
Experimental: as §1

r murine EphA7 [2] = biological target: T4, r murine EphA7 (mouse, UniProt Q61772); assay: activity ELISA, Fab on coated antigen
T4 construct: recombinant Fc fusion (R&D Systems); also called rmuEphA7-Fc; mEphA7
T4 sequence (receptor-Fc fusion, looked up): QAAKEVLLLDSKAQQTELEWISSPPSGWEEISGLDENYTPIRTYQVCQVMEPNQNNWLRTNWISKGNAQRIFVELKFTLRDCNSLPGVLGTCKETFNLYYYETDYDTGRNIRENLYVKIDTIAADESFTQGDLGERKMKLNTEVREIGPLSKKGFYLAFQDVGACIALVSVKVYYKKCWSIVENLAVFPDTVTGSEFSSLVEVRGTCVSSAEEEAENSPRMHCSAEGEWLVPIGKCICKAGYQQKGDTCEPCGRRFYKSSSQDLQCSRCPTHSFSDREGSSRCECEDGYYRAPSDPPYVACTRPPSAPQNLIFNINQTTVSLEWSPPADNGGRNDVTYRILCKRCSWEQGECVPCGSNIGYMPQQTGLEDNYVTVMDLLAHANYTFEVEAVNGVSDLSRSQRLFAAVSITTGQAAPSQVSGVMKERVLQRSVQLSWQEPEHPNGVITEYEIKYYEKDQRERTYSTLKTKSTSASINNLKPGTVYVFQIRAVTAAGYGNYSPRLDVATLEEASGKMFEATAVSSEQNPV
Experimental: as §1

r murine EphA4 [3] = biological target: T3, r murine EphA4; assay: activity ELISA, IgG on coated antigen
Experimental: (§2) Secondary screening of IgG constructs of affinity optimized combinatorial variants with additional EphA receptors: With purified IgG constructs of the nine combinatorial variants, additional secondary screening assays were performed using the Activity ELISA (see above) and recombinant EphA receptor proteins. More precisely, Nunc Maxisorp plates were coated with the following rEphA proteins: rhuEphAl-Fc; 0.5 μg/well, rmuEphA2-Fc; 0.5 μg/well, rmuEphA3-Fc: 0.1 μg/well, rmuEphA4-Fc; 0.1 μg/well, rratEphA5-Fc; 0.5 μg/well, rmuEphA6-Fc; 0.5 μg/well, rmuEphA7-Fc; 0.1 μg/well, rEphA8; 0.2 μg/well (all R&D Systems), rhuEphA2-Fc; 0.5 μg/well, and rhuEphA4-His; 0.1 μg/well (both produced at MedImmune, Inc.). Plates were blocked with 3% BSA+0.1% Tween20 for 2 h. […] Incubation with a goat anti-human kappa horseradish peroxydase (HRP) conjugate then followed. HRP activity was detected with TMB substrate and the reaction quenched with 0.2 M H₂SO₄. Plates were read at 450 nm. Data was analyzed by normalizing Fab concentrations to the corresponding activity data (see FIGS. 12A-12J and 14).

r murine EphA7 [4] = biological target: T4, r murine EphA7; assay: activity ELISA, IgG on coated antigen
Experimental: as §2

[5] = biological target: T5, Human EphA4-Fc fusion protein (human, UniProt P54764 20-547); assay: BIAcore, IgG immobilized on the sensor chip, EphA4-Fc as analyte
T5 construct: not shown: Fc portion of a human IgG1
T5 sequence (P54764 20-547): as the sequence (Q03137 20-547 limits assumed) above, with A59P, S121N, G124V, Q250R, N251S, S270T, R378K, S406N counted along it
Experimental: (§3) FIG. 15A-15B. […] Binding affinities were measured using the BIAcore assay. […] Variant kinetic measurements for human EphA4 and were obtained using BIAcore with immobilized variant antibodies and human EphA4-Fc and EphA4-His as analytes.

[6] = biological target: T6, Human EphA4-His fusion protein (human, UniProt P54764 20-547); assay: BIAcore, IgG immobilized on the sensor chip, EphA4-his as analyte
T6 construct: also called rhuEphA4-His; not shown: Histidine tag
T6 sequence (P54764 20-547): as the sequence (Q03137 20-547 limits assumed) above, with A59P, S121N, G124V, Q250R, N251S, S270T, R378K, S406N counted along it
Experimental: as §3

mEphA4 = biological target: T7, mEphA4 (mouse, UniProt Q03137); assay: ELISA, receptor coated on the plate, purified IgG, anti-human kappa-HRP
T7 construct: part of an Fc fusion; also called rmuEphA4-Fc
T7 sequence (Q03137 20-547 limits assumed): as the sequence (Q03137 20-547 limits assumed) above
Experimental: as §2

mEphA7 = biological target: T8, mEphA7 (mouse, UniProt Q61772); assay: as above
T8 construct: part of an Fc fusion; also called rmuEphA7-Fc
T8 sequence (receptor-Fc fusion, looked up): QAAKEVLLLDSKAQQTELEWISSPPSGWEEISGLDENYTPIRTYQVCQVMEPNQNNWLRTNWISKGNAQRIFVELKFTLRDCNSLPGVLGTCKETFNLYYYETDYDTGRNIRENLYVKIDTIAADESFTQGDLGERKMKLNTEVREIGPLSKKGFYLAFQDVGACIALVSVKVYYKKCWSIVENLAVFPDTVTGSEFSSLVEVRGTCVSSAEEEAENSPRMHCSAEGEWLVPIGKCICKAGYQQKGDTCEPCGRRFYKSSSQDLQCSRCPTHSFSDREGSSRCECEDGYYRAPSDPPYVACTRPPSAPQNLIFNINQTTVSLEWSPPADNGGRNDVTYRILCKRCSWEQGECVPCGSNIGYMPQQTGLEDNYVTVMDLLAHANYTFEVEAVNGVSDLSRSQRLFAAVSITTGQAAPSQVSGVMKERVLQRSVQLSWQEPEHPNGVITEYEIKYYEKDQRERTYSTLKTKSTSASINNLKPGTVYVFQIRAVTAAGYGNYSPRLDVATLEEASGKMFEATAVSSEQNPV
Experimental: as §2

T1 sequence (P29317 25-534 limits assumed): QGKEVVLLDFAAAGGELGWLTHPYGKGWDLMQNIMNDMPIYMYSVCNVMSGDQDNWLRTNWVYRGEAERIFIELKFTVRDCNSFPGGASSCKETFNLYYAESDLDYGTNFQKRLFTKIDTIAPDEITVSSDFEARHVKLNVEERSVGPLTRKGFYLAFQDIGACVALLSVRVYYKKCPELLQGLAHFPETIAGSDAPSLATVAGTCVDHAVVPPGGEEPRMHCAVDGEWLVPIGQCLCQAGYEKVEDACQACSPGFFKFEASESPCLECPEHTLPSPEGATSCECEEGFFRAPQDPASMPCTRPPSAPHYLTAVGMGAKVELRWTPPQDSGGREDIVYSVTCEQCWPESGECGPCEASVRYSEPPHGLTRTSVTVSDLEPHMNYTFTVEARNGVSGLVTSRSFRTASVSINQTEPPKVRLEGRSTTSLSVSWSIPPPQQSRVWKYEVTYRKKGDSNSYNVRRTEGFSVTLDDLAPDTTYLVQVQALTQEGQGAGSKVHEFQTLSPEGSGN

B1: 4H5 (antibody, V domains shown)
VH: QVQLLESGGGLVQPGGSLRLSCAASGFTFSSYTMSWVRQAPGQALEWMGTISSGGTYTYYPDSVKGRFTISRDNAKNSLYLQMNSLRAEDTAVYYCAREAIFTYWGRGTLVTVSS
VL: DIQLTQSPSSLSASVGDRVTITCKASQDINNYLSWYQQKPGQAPRLLIYRANRLVDGVPDRFSGSGYGTDFTLTINNIESEDAAYYFCLKYDVFPYTFGQGTKVEIK
ELISA O.D. value (hEphA2): 0.724

B2: EA5 (antibody, V domains shown)
VH: EVQLQQSGPELVKTGASVKISCKASGYSFTGYYMHWVKQSHGKSLEWIGYISCYNGVTSYNQKFKGKATFTVDTSSSTAYMQFNSLTSEDSAVYYCARSHAMDYWGQGTSVTVSS
VL: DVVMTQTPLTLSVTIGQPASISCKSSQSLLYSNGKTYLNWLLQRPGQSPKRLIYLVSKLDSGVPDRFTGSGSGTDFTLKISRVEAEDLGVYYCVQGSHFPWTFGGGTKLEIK
ELISA O.D. value (hEphA2): 0.131

B3: 6B7 Fab (affinity optimized combinatorial variant of Fab20) (Fab, V domains shown)
VH: QVQLLQSGAEVKKPGASVKVPCKASGYTFTSRAMSWVRQAPGQGLEWMGWINTNTGNPTYAQGFTGRFVFSLDTSVSTAYLQISSLKAEDTAVYYCARVRFTVYGDGMDVWGQGTLVTVSS
VL: EIVLTQSPATLSVSPGERATLSCRASQSVSSNPAWYQQKPGQAPRLLIYGASTRATGIPDRFSASGSGTDFTLTISRVEPEDFAVYYCQQYGPSWTFGQGTKVEIK
binding result (r murine EphA3): binds | binding result (r murine EphA4 [1]): binds | binding result (r murine EphA7 [2]): binds

B4: 1D11 Fab (affinity optimized combinatorial variant of Fab20) (Fab, V domains shown)
VH: QVQLLQSGAEVKKPGASVKVPCKASGYTFTSRAMSWVRQAPGQGLEWMGWINTNTGNPTYAQGFTGRFVFSLDTSVSTAYLQISSLKAEDTAVYYCARVRTTVYGDNMDVWGQGTLVTVSS
VL: EIVLTQSPATLSVSPGERATLSCRASQSVSSNLPWYQQKPGQAPRLLIYGASTRATGIPDRFSASGSGTDFTLTISRVEPEDFAVYYCQQYGPSWTFGQGTKVEIK
binding result (r murine EphA4 [1]): binds | binding result (r murine EphA7 [2]): binds

B7: 1B10 Fab (affinity optimized combinatorial variant of Fab20) (Fab, V domains shown)
VH: QVQLLQSGAEVKKPGASVKVPCKASGYTFTSRAMSWVRQAPGQGLEWMGWINTNTGNPTYAQGFTGRFVFSLDTSVSTAYLQISSLKAEDTAVYYCARVRFTVYGDGMDVWGQGTLVTVSS
VL: EIVLTQSPATLSVSPGERATLSCRASQSVSSNPAWYQQKPGQAPRLLIYGASTWATGIPDRFSASGSGTDFTLTISRVEPEDFAVYYCQQYGPSWTFGQGTKVEIK
binding result (r murine EphA4 [1]): binds | binding result (r murine EphA7 [2]): binds

B8: 3C6 Fab (affinity optimized combinatorial variant of Fab20) (Fab, V domains shown)
VH: QVQLLQSGAEVKKPGASVKVPCKASGYTFTSRAMSWVRQAPGQGLEWMGWINTNTGNPTYAQGFTGRFVFSLDTSVSTAYLQISSLKAEDTAVYYCARVRLTVYGDGMDVWGQGTLVTVSS
VL: EIVLTQSPATLSVSPGERATLSCRASQSVSSNPPWYQQKPGQAPRLLIYGASTRATGIPDRFSASGSGTDFTLTISRVEPEDFAVYYCQQYGSSWTFGQGTKVEIK
binding result (r murine EphA4 [1]): binds | binding result (r murine EphA7 [2]): binds

B10: 8B4 IgG1 (affinity optimized combinatorial variant of mAb GEA44 in human IgG1 format) (antibody, V domains shown)
VH: QVQLLQSGAEVKKPGASVKVPCKASGYTFTSRAMSWVRQAPGQGLEWMGWINTNTGNPTYAQGFTGRFVFSLDTSVSTAYLQISSLKAEDTAVYYCARVRLTVYGDGMDVWGQGTLVTVSS
VL: EIVLTQSPATLSVSPGERATLSCRASQSVSSNPAWYQQKPGQAPRLLIYGLSTRATGIPDRFSASGSGTDFTLTISRVEPEDFAVYYCQQYGPSWTFGQGTKVEIK
Kd [5]: 197 pM | koff [5]: 2.2e-05 s⁻¹ | kon [5]: 112000 M⁻¹ s⁻¹

Other lines, results leading:

binding result (r murine EphA3): binds | binding result (r murine EphA4 [1]): binds | binding result (r murine EphA7 [2]): binds
B5: 1A4 Fab (affinity optimized combinatorial variant of Fab20) (Fab, V domains shown)
VH: QVQLLQSGAEVKKPGASVKVPCKASGYTFTSRAMSWVRQAPGQGLEWMGWINTNTGNPTYAQGSTGRFVFSLDTSVSTAYLQISSLKAEDTAVYYCARVRFTVYGDGMDVWGQGTLVTVSS
VL: EIVLTQSPATLSVSPGERATLSCRASQSVSSNPAWYQQKPGQAPRLLIYGASTRATGIPDRFSASGSGTDFTLTISRVEPEDFAVYYCQQYGPSWTFGQGTKVEIK

binding result (r murine EphA3): binds | binding result (r murine EphA4 [1]): binds | binding result (r murine EphA7 [2]): binds
B6: 1G11 Fab (affinity optimized combinatorial variant of Fab20) (Fab, V domains shown)
VH: QVQLLQSGAEVKKPGASVKVPCKASGYTFTSRAMSWVRQAPGQGLEWMGWINTNTGNPTYAQGFTGRFVFSLDTSVSTAYLQISSLKAEDTAVYYCARVRFTVYGDGMDVWGQGTLVTVSS
VL: EIVLTQSPATLSVSPGERATLSCRASQSVSSNLPWYQQKPGQAPRLLIYGASTRPTGIPDRFSASGSGTDFTLTISRVEPEDFAVYYCQQYGPSWTFGQGTKVEIK

binding result (r murine EphA4 [3]): binds | binding result (r murine EphA7 [4]): binds | Kd [5]: 176 pM | koff [5]: 6.15e-05 s⁻¹ | kon [5]: 350000 M⁻¹ s⁻¹ | Kd [6]: 8800 pM | koff [6]: 0.000984 s⁻¹ | kon [6]: 112000 M⁻¹ s⁻¹ | binding result (mEphA4): binds | binding result (mEphA7): binds
B9: 1D11 IgG1 (affinity optimized combinatorial variant of mAb GEA44 in human IgG1 format) (antibody, V domains shown)
VH: QVQLLQSGAEVKKPGASVKVPCKASGYTFTSRAMSWVRQAPGQGLEWMGWINTNTGNPTYAQGFTGRFVFSLDTSVSTAYLQISSLKAEDTAVYYCARVRTTVYGDNMDVWGQGTLVTVSS
VL: EIVLTQSPATLSVSPGERATLSCRASQSVSSNLPWYQQKPGQAPRLLIYGASTRATGIPDRFSASGSGTDFTLTISRVEPEDFAVYYCQQYGPSWTFGQGTKVEIK

ELISA O.D. value (hEphA2): 0.849
B11: 12G3H11 (antibody, V domains shown)
VH: QMQLVQSGPEVKKPGTSVKVSCKASGFTFDDYSMNWVRQARGQRLEWIGFIRNKANDYTTEYADSVKGRVTITRDMSTSTAYMELSSLRSEDTAVYYCARYPRHHAMDSWGQGTSVTVSS
VL: DIQMTQSPSSLSASVGDRVTITCRASQSISNNLHWYQQKPGKAPKLLIKYAFQSISGVPSRFSGSGSGTDFTFTISSLQPEDFATYYCQQANSWPLTFGGGTKVEIK
